Key:
[1] = target: EPO receptor (Sinobiological, 10707-H08H) (UniProt P19235); experiment: SPR, Biacore 8K, 25 C
[2] = target: T1, EPO receptor on TF-1 cells (human, UniProt P19235 25-508); experiment: cell-based or functional assay
T1 sequence (looked up): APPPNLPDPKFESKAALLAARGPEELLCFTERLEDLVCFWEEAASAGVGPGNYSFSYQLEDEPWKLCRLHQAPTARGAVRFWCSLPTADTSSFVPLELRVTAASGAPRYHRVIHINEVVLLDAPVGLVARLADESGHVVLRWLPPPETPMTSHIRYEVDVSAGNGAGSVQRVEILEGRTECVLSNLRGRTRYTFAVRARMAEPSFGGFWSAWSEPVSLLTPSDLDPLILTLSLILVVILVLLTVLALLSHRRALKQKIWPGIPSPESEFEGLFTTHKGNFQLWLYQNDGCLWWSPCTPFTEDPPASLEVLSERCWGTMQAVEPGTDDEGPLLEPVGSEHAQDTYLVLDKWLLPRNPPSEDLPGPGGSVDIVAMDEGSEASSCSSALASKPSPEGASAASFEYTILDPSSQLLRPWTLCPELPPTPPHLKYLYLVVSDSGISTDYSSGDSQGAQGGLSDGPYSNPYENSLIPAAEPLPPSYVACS

Kd [1]: 8.35 nM
EC50 (ng/ml), TF-1 cell proliferation (MTS, absorbance at 490 nM) [2]: 11.4 ng/mL
Substance: Darbepoetin (Darbe, lot #1078765A) (ligand)

— US20230331798A1 (JECHO LABORATORIES, published 2023)
